# Data from patent US20230257470A1 (published 2023).
# T1: human FcγRIIa(R) (human, UniProt P12318 36-217)
# T1 construct: also called FcgRIIaR; FcγRIIa type R
# T1 chain: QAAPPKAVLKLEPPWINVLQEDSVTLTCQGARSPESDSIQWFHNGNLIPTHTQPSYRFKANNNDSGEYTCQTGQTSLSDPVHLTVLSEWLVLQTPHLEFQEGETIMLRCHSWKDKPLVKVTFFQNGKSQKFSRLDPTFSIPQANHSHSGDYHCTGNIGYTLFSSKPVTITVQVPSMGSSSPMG
# T2: human FcγRIIa(H) (human, UniProt P12318 36-217)
# T2 construct: also called FcgRIIaH; FcγRIIa type H
# T2 sequence: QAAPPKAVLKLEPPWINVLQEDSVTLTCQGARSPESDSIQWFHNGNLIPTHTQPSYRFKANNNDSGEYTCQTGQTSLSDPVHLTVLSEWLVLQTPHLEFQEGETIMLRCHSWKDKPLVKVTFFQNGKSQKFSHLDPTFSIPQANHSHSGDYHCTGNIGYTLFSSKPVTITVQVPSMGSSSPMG
# T3: mouse FcγRIII (mouse, UniProt P08508 31-215)
# T3 construct: Bought protein; construct not described; also called mFcgRIII
# T3 sequence (looked up): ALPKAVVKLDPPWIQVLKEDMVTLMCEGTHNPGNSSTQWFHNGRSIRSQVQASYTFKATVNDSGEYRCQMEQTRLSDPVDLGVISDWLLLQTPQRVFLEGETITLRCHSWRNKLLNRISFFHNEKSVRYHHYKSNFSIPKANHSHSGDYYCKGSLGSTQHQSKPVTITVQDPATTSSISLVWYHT
# T4: mouse FcγRI (mouse, UniProt P26151 25-297)
# T4 construct: Bought protein; construct not described; also called mFcgRI
# T4 sequence (looked up): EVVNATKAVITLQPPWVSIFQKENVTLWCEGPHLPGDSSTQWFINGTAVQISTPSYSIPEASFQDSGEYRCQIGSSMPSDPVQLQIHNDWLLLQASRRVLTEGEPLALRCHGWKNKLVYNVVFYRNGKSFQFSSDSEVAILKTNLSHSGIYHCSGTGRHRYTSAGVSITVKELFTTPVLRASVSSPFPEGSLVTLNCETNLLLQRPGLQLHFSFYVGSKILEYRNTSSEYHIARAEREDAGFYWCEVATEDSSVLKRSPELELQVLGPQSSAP
# T5: mouse FcγRIIb (mouse, UniProt P08101 40-217, limits assumed)
# T5 construct: Bought protein; construct not described; also called mFcgRIIb
# T5 sequence (looked up): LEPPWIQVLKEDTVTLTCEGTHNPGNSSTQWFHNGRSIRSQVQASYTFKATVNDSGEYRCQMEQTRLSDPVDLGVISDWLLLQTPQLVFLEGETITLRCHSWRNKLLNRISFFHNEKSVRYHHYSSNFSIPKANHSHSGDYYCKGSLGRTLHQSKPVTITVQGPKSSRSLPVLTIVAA
# Key:
# [1] = biological target: T1, human FcγRIIa(R); assay: SPR, captured antibody, FcγR analyte; bound amount per captured antibody
# [2] = biological target: T2, human FcγRIIa(H); assay: SPR (Biacore), captured antibody, FcγR analyte
# [3] = biological target: T3, mouse FcγRIII; assay: SPR, antibody captured by Protein L, mouse FcγR injected, pH 7.4
# [4] = biological target: T4, mouse FcγRI; assay: as above
# [5] = biological target: T5, mouse FcγRIIb; assay: as above
binder,measurement,setting,value
"GpH7-B3 G236K/GpL16-k0 (antibody, human IgG1, anti-glypican-3 IgG1; B3 constant region (G1d with K439E); also called B3 variant; copies: 2 + 2) heavy: not shown light: DIVMTQSPLSLPVTPGEPASISCQASESLVHSNRNTYLHWYLQKPGQSPQLLIYKVSNRFSGVPDRFSGSGSGTDFTLKISRVEAEDVGVYYCSQNTHVPPTFGQGTKVEIE",relative binding activity,[1],9 % of GpH7-B3/GpL16-k0
"GpH7-B3 L234G/GpL16-k0 (antibody, human IgG1, anti-glypican-3 IgG1; B3 constant region (G1d with K439E); also called B3 variant; copies: 2 + 2) heavy: not shown light: DIVMTQSPLSLPVTPGEPASISCQASESLVHSNRNTYLHWYLQKPGQSPQLLIYKVSNRFSGVPDRFSGSGSGTDFTLKISRVEAEDVGVYYCSQNTHVPPTFGQGTKVEIE",relative binding activity,[1],9 % of GpH7-B3/GpL16-k0
"GpH7-B3 variant V266R/GpL16-k0 (antibody, human IgG1, anti-glypican-3 IgG1; alteration introduced into GpH7-B3; copies: 2 + 2) heavy: not shown light: DIVMTQSPLSLPVTPGEPASISCQASESLVHSNRNTYLHWYLQKPGQSPQLLIYKVSNRFSGVPDRFSGSGSGTDFTLKISRVEAEDVGVYYCSQNTHVPPTFGQGTKVEIE",relative binding activity,[2],1 % of GpH7-B3/GpL16-k0
"GpH7-B3 variant V266K/GpL16-k0 (antibody, human IgG1, anti-glypican-3 IgG1; alteration introduced into GpH7-B3; copies: 2 + 2) heavy: not shown light: DIVMTQSPLSLPVTPGEPASISCQASESLVHSNRNTYLHWYLQKPGQSPQLLIYKVSNRFSGVPDRFSGSGSGTDFTLKISRVEAEDVGVYYCSQNTHVPPTFGQGTKVEIE",relative binding activity,[2],1 % of GpH7-B3/GpL16-k0
"VH3/L(WT)-IgG1-F939 (antibody, L235R/S239K variant of VH3-IgG1-F890 with L(WT)-CK; also called VH3-IgG1-F939; copies: 2 + 2) heavy: QVQLQESGPGLVKPSETLSLTCAVSGHSISHDHAWSWVRQPPGEGLEWIGFISYSGITNYNPSLQGRVTISRDNSKNTLYLQMNSLRAEDTAVYYCARSLARTTAMDYWGEGTLVTVSSASTKGPSVFPLAPSSKSTSGGTAALGCLVKDYFPEPVTVSWNSGALTSGVHTFPAVLQSSGLYSLSSVVTVPSSSLGTQTYICNVNHKPSNTKVDKKVEPKSCDKTHTCPPCPAPELRGGPKVFLFPPKPKDTLYISRTPEVTCVVVDVSHEDPEVKFNWYVDGVEVHNAKTKPREEQYNSTYRVVSVLTVLHQDWLNGKEYKCKVSNKALPAPIEKTISKAKGQPREPQVYTLPPSRDELTKNQVSLTCLVKGFYPSDIAVEWESNGQPENNYKTTPPVLDSDGSFFLYSKLTVDKSRWQQGNVFSCSVMHEALHYHVTQKSLSLSP light: not shown",binding result,[3],no binding
same,binding result,[4],no binding
same,binding result,[5],no binding
"VH3/L(WT)-IgG1-F1009 (antibody, L235R/S239K variant of VH3-IgG1-F947 with L(WT)-CK; also called VH3-IgG1-F1009; copies: 2 + 2) heavy: QVQLQESGPGLVKPSETLSLTCAVSGHSISHDHAWSWVRQPPGEGLEWIGFISYSGITNYNPSLQGRVTISRDNSKNTLYLQMNSLRAEDTAVYYCARSLARTTAMDYWGEGTLVTVSSASTKGPSVFPLAPSSKSTSGGTAALGCLVKDYFPEPVTVSWNSGALTSGVHTFPAVLQSSGLYSLSSVVTVPSSSLGTQTYICNVNHKPSNTKVDKKVEPKSCDKTHTCPPCPAPELRGGPKVFLFPPKPKDVLYISRTPEVTCVVVDVSHEDPEVKFNWYVDGVEVHNAKTKPREEQYNSTYRVVSVLQPLHADWLNGKEYKCKVSNKALPAPIEKTISKAKGQPREPQVYTLPPSRDELTKNQVSLTCLVKGFYPSDIAVEWESNGQPENNYKTTPPVLDSDGSFFLYSKLTVDKSRWQQGNVFSCSVMHEALHYHVTQKSLSLSP light: not shown",binding result,[3],no binding
same,binding result,[4],no binding
same,binding result,[5],no binding
